For assay [1], the target named is T1, Mouse Tie 1-Fc (Mus musculus, UniProt Q06806).
T1 sequence (Q06806 23-755 limits assumed): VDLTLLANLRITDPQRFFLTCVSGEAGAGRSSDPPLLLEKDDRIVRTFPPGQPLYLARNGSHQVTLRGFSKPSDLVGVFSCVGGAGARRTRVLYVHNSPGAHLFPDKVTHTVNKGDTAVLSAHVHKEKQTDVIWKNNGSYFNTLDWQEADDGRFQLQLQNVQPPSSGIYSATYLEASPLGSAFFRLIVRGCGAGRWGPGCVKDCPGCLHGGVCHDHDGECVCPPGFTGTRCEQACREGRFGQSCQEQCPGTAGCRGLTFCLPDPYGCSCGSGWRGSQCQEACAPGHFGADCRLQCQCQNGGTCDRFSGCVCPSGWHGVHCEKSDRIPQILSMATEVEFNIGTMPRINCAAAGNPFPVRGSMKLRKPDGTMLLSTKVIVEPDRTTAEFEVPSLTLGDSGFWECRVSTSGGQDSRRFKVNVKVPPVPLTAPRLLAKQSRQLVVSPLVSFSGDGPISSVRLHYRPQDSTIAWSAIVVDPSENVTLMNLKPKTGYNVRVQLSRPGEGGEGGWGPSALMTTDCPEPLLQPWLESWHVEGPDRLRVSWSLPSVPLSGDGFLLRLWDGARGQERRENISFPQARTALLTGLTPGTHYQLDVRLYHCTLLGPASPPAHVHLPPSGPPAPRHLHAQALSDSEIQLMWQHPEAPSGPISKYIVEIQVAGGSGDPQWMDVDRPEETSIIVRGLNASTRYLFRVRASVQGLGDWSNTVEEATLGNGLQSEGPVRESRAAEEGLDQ
The assay is described as follows: BIAcore, E3 Fabs on mouse Tie1-Fc. The format is binding. The note with it: Fab, mouse Tie1-Fc. Here is the method: Mouse Tie 1-Fc antigen (0.5 mg/ml stock) was biotinylated using established procedures and after dilution 1/100 fold in HBS this was then used for capturing to a streptavidin chip. This was coated to a resonance value of 740RU. All analysis was performed in HBS buffer. The parental Fab E3 0.587 mg/ml (11740 nM) was diluted 1/587 in HBS+BSA to obtain a stock of 20 nM and the germlined Fab E3 0.025 mg/ml (500 nM) was diluted 1/25 in HBS+BSA to obtain a stock of 20 nM. Serial dilutions were made of each Fab preparation to obtain 10 nM, 5 nM, 2.5 nM, and 1.25 nM. For the association phase samples were injected at 30 μl/min for 4 minutes using kinject program. This was followed by a 10 minutes dissociation phase, any remaining sample was stripped from the Tie-1 Fc surface at a flow of 50 μl/min with a single injection of 50 mM NaOH+1 M NaCl for 18 seconds. All samples were run and analyzed in duplicate.
(§1) Sensorgrams were analyzed using the simultaneous ka/kd fitting program with 1:1 model in the BIAEVALUATION™ software 3.1.
(In SPR one partner is held on a chip, and binding of the other changes the refractive index at the surface.)

The target of assay [2] is Tie1 (Homo sapiens, UniProt P35590). The assay is described as follows: Tie1 phosphorylation assay in transfected COS1 cells. The format is cell-based. The note with it: COS1 cells with V5-tagged full length Tie1, serum starved, E3 IgG 200 ng/ml. Here is the method:
COS1 cells were transfected with pcDNA3-Tie1-V5. After 24 h of transfection, the cells were serum starved for 8 h and then treated with E3 IgG. For the Tie1 phosphorylation assay, HDMVECs were cultured on 10 cm dishes to near confluence, starved (8-16 h) in serum free medium and stimulated as indicated. After the stimulations, the cells were lysed in lysis buffer (RIPA-DOC: 50 mM Tris-HCl pH 8.0, 150 mM NaCl, 1% Triton-X-100, 0.1% SDS, 0.5% DOC, 10 mM EDTA, supplemented with aprotinin, leupeptin, PMSF and sodium vanadate). Clarified lysates from transfected COS1 cells or HDMVECs were immunoprecipitated with anti-V5 or anti-Tie1 B9, respectively. Proteins were separated by SDS-PAGE, transferred to nitrocellulose and immunoblotted using the anti-phosphotyrosine and anti-Tie1 (R&D systems) antibodies.
To test if the E3 IgG binding to the extracellular region of Tie1 induces autophosphorylation of Tie1, the Tie1 receptor phosphorylation level in response to E3 IgG treatment was studied in transiently transfected COS1 cells and human primary endothelial cells. COS1 cells were transfected with an expression vector containing a V5-tagged full length Tie1 cDNA, and, after serum starvation, the cells were treated with E3 IgG (200 ng/ml). […]

Assay [3] addresses T1, Mouse Tie 1-Fc. Nature of the assay: BIAcore, coated E3 IgGs with recombinant mouse Tie-1 Fc. In kind it is binding. Conditions: IgG, mouse Tie1-Fc. On the procedure:
In order to evaluate if the binding behavior had been affected in any way by the conversion of the somatic mutations back to germline, the germlined antibody was produced and tested as a IgG. The germlined E3 was reformatted to an IgG as described. This was then used to transiently transfect HEK293T cells using established procedures. The IgG was purified from the culture supernatant using protein A column chromatography using established procedures and the subsequent IgG was then tested for binding activity using surface plasmon resonance (BIAcore). The germlined E3 IgG1 stock solution 0.63 mg/ml (2146-002) was diluted 1/50 in a buffer of pH 4.5 and the parental E3 IgG1 stock solution 0.56 mg/ml (2143-001) was diluted 1/50 in a buffer of pH 4.5. The IgG were directly coated via onto a CM5 chip. The surface of the chips was activated with a 7 minute pulse of 0.05M NHS/0.2M EDC and the IgG was flowed over until 780RU germlined E3-IgG and 728 non germlined E3 IgG was coated onto the surface. All flow cells were subsequently deactivated with a 7 minute pulse of 1M ethanolamine hydrochloride pH8.5. All analysis was performed in HBS buffer. […] All samples were run and analyzed in duplicate
as §1

Chain of Tie1 (P35590 22-1138): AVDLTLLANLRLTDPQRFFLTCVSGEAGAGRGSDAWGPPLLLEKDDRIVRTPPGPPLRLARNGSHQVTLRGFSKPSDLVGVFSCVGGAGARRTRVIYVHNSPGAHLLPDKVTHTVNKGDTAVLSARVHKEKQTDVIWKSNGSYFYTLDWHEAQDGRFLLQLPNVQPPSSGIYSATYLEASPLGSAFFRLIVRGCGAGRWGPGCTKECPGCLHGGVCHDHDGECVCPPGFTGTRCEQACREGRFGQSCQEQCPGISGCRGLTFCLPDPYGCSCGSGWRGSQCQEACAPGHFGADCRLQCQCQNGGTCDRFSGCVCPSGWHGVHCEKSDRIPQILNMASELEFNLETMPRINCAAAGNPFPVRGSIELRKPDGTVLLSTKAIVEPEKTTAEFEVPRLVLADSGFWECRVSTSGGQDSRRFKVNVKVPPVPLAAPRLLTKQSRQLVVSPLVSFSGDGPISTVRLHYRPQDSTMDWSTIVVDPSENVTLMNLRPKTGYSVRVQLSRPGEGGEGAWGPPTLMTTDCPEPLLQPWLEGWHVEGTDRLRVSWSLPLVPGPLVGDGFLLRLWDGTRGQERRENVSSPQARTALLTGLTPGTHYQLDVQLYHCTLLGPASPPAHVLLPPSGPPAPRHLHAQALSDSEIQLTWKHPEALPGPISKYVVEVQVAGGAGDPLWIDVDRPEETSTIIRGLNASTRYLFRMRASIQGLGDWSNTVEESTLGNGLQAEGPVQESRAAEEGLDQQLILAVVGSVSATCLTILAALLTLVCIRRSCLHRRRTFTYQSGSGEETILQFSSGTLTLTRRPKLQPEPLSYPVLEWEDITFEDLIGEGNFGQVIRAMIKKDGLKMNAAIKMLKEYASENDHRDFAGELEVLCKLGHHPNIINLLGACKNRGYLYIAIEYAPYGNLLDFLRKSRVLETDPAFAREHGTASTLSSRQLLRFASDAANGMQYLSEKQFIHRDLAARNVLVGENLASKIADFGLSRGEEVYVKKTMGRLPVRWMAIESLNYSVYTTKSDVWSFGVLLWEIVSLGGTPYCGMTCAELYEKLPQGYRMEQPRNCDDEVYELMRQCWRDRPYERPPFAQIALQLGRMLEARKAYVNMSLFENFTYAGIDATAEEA

B1: E3: human anti-Tie1 antibody from Fab phage library; HC SEQ ID NO:114, LC SEQ ID NO:116 (antibody, V domains shown)
VH: EVQLLESGGGLVQPGGSLRLSCAASGFTFSMYGMVWVRQAPGKGLEWVSVISPSGGNTGYADSVKGRFTISRDNSKNTLYLQVNSLRAEDTAVYYCARAPRGYSYGYYYWGQGTLVTVSSASTKGPSVFPLAPSSKSTSGG
VL: DIQMTQSPLSLSASVGDRVTITCRASQGIGHYLAWYQQKPGKVPKLLIYTASTLQSGVPSRFSGSGSGTDFTLTINSLQPEDVATYYCQQFNSYPHTFGQGTRLDIK
modifications: Synthetically generated peptide
For the molecule B1, the “effect of germlining on binding activity” value in assay [1] is “minimal effect on the binding activity”; in assay [3], “minimal impact on the binding activity”. Moreover, the “time of stimulation after which Tie1 is tyrosine phosphorylated” value in assay [2] fell in the range of 10 to 30 min.

The values are drawn from patent US7871610B2, “Antibodies to Tie1 ectodomain” (Dyax Corp., priority 2003, dated 2011).
